Target: human IGF-1R (human) (UniProt P08069)
Experiment: cell-based or functional assay

Chain of human IGF-1R (human) (P08069 31-1367): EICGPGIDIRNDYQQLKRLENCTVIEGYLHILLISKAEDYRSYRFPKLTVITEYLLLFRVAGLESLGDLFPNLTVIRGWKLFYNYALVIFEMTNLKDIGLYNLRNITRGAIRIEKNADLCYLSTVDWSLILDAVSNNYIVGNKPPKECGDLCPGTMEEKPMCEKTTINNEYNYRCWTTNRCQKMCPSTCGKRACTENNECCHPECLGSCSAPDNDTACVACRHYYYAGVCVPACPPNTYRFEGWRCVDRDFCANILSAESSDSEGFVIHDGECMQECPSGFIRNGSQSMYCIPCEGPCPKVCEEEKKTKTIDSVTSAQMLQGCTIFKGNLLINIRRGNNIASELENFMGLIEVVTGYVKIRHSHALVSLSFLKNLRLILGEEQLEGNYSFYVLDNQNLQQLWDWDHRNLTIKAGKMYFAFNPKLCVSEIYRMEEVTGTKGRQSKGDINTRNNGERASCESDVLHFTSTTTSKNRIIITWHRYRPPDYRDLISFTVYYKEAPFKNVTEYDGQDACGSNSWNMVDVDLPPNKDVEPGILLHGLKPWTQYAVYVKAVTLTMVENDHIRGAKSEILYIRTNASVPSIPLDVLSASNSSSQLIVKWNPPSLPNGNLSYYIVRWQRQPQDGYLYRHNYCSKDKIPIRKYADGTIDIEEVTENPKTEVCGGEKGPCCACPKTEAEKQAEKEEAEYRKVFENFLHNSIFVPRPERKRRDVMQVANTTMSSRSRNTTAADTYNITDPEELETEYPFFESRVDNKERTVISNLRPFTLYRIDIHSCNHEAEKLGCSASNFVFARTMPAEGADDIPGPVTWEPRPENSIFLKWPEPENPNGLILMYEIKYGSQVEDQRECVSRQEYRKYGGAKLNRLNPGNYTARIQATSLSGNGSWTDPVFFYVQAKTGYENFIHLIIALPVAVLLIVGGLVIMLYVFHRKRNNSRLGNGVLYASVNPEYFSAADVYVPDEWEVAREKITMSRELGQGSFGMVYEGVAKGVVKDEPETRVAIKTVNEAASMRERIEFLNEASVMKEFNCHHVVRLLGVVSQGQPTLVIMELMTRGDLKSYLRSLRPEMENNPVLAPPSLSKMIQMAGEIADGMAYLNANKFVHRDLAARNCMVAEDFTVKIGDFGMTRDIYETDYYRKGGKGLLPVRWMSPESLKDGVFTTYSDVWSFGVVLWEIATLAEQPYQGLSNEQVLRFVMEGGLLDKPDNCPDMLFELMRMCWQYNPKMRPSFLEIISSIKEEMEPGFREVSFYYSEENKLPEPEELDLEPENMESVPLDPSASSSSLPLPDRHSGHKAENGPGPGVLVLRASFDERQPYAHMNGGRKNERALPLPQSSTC

Question: Which % Remaining Phosphorylation at 15 µg/mL (100 nM) Inhibitor, IGF-1 (20 ng/mL) induced IGF-1R phosphorylation does the source give for “IGF-1R antibody αIR3 (Calbiochem, No. GR11L)” here?
Answer: 35%

Question: What about the % Remaining Phosphorylation at 15 µg/mL (100 nM) Inhibitor, IGF-2 (100 ng/mL) induced IGF-1R phosphorylation of the same substance?
Answer: 76%

Question: And the % Remaining Phosphorylation at 15 µg/mL (100 nM) Inhibitor, human serum (20%) induced IGF-1R phosphorylation?
Answer: 120%

Question: And the IC50, IGF-1 (20 ng/mL) induced IGF-1R phosphorylation, cell-based ELISA?
Answer: 1.16 µg/mL

Question: And the IC50, IGF-2 (100 ng/mL) induced IGF-1R phosphorylation, cell-based ELISA?
Answer: > 15 µg/mL

Question: And the IC50, human serum (20%) induced IGF-1R phosphorylation, cell-based ELISA?
Answer: > 15 µg/mL
